# Data from publication PMC6423188, “HYNIC and DOMA conjugated radiolabeled bombesin analogs as receptor-targeted probes for scintigraphic detection of breast tumor” (EJNMMI Research, 2019).
# Where a SMILES comes first, the peptide text is derived from it.
# Assays:
# [1] = physchem; format: physicochemical; conditions: buffer or solvent, pH 7.4
# Procedure: In vitro radiochemical stability of ^99mTc-BN1/^99mTc-BN2/^99mTc-BN3 and ^99mTc-BN4, ^99mTc-BNS were assessed by incubating HPLC purified radiopeptides in phosphate buffer saline (PBS at pH 7.4) and freshly collected rat serum for 1–24 h at […]. Then, 90 μL of radiolabeled peptide ^99mTc-BN1/^99mTc-BN2/^99mTc-BN3/^99mTc-BN4/^99mTc-BNS solution were incubated under agitation at 37 °C with either 1.0 mL saline or fresh rat serum, and the mixtures were incubated at 37 °C for 24 h. Samples were periodically withdrawn from the mixture at 0, 2, 4, 6, 8, 12, and 24 h incubation period and analyzed by ITLC. In the case of rat serum, the aliquot was added to 100 μL 50% trifluoroacetic acid (TFA). After centrifugation (3000 rpm), the supernatant was analyzed by ITLC using acetone as the developing solvent; 10 μL of this mixture was taken at each time point, added to a strip ITLC whereby the percentage of ^99mTc-BN1/^99mTc-BN2/^99mTc-BN3/^99mTc-BN4/^99mTc-BNS was determined using gamma counter.
# In vitro stability of ^99mTc-labeled bombesin analogs incubated at 37 °C with either freshly collected rat serum or normal saline were monitored up to 24 h. […] The new radiolabeled peptide conjugates were stable up to 24 h post labeling period at room temperature, with no observable degradation or transchelation to serum proteins.
# [2] = physchem; format: physicochemical; conditions: pH 7.4
# Procedure: Lipophilicity of the HPLC-purified radiopeptide analogs was determined through octanol/water partition coefficients, determined at pH 7.4 by measuring the distribution of the HPLC purified radiolabeled peptides in 1-octanol and PBS. Then, 50 μL HPLC purified ^99mTc-BN1/^99mTc-BN2/^99mTc-BN3/^99mTc-BN4/^99mTc-BNS with 100 μCi of radiolabeled compound in PBS was added to a to a centrifuge tube containing 1 mL n-octanol and 1 mL PBS (0.025 M, pH 7.4). The tube was vortexed at room temperature for 2 min and they are centrifuged at 5000 rpm for 5 min to ensure complete separation of layers. Further, 100 μL of each phase was transferred into a separate pre-weighed vial and measured in the well γ-counter. The ratio of octanol layer counts to aqueous layer counts was expressed as the distribution coefficient (D, the appropriate descriptor for ionizable compounds) and logD was used for determination of lipophilicity. Counts per unit weight of the sample were calculated, and logD value as calculated as follows:
# log10D = log10 [(cpm in octanol – cpm in background) / (cpm in buffer – cpm in background)]
# [3] = in vitro; format: in vitro ADME; conditions: rat, serum
# Procedure: An aliquot (100 μL) of ^99mTc-BN1/^99mTc-BN2/^99mTc-BN3/^99mTc-BN4/^99mTc-BNS was added to 1 mL of freshly collected rat serum in centrifuge tube. The mixture was then incubated at 37 °C for 1 h; the serum protein was precipitated by adding 1 mL trichloroacetic acid (10%, V/V). The supernatant and precipitate were separated by centrifugation at 3000 rpm for 5 min. Radioactivities of both the phases were measured separately. The above experimental procedure was repeated three times. The percentage of protein binding was determined as: Plasma protein binding % = (precipitate counts (CPM) / [precipitate counts (CPM) + plasma counts (CPM)]) × 100%.
# [4] = Blood clearance studies; format: in vivo; conditions: mouse, i.v. tail vein
# Procedure: ^99mTc-labeled HYNIC/DOMA conjugated peptide analogs (1 mCi, 0.2 mL) were administered to well-hydrated mouse (n = 3) through tail vein and blood samples (20 μL each) were collected at preset time intervals (2, 5, 15, 30, 60, 90, and 120 min) in the tube. Each sample was weighed accurately, and associated radioactivity was counted in a gamma counter. The percentage injected activities per gram (%IA/g) in each blood sample at each time were determined, and the data were plotted as a function of the time interval to obtain the blood clearance curve of the radiopharmaceuticals.
smiles,measurement,setting,value
"CCCC[C@H](NC(=O)[C@@H](Cc1ccc(O)cc1)NC(=O)[C@H](Cc1c[nH]cn1)NC(=O)[C@H]1CCCN1C(=O)[C@@H](NC(=O)[C@H](C)NC(=O)[C@H](Cc1c[nH]c2ccccc12)NC(=O)[C@H](CCC(N)=O)NC(=O)CCCNC(=O)CN1CCNCCNCCNCC1)C(C)C)C(N)=O [99mTc-BN4, ^99mTc-DOMA-GABA-[Pro^11Tyr^13Nle^14]-BN(7-14)NH2, metal not drawn] (HELM PEPTIDE1{[O=C(CN1CCNCCNCCNCC1)[*:2]].[O=C(CCCN[*:1])[*:2]].Q.W.A.V.[dP].H.[dY].[Nle].[am]}$$$$V2.0)",remaining at 2 h,[1],95.5 ± 0.03%
same,remaining at 4 h,[1],95 ± 0.07%
same,remaining at 6 h,[1],93.5 ± 0.12%
same,remaining at 8 h,[1],92.5 ± 0.2%
same,remaining at 12 h,[1],90 ± 0.11%
same,remaining at 24 h,[1],88 ± 0.14%
same,logD,[2],-2.7
same,fraction unbound at 1 h,[3],0.809
same,t1/2 in blood,[4],30 min
